B1: HsCNNM4 extracellular domain A149S (Jalili syndrome mutation) (domain or fragment, human, UniProt Q6P4Q7 44-175, looked up)
chain: GTIVGMRLASCNKSCGTNPDGIIFVSEGSTVNLRLYGYSLGNISSNLISFTEVDDAETLHKSTSCLELTKDLVVQQLVNVSRGNTSGVLVVLTKFLRRSESMKLYSLCTRAQPDGPWLKWTDKDSLLFMVEE
B2: HsCNNM4 extracellular domain E95Q (Jalili syndrome mutation) (domain or fragment, human, UniProt Q6P4Q7 44-175, looked up)
chain: GTIVGMRLASCNKSCGTNPDGIIFVSEGSTVNLRLYGYSLGNISSNLISFTQVDDAETLHKSTSCLELTKDLVVQQLVNVSRGNTSGVLVVLTKFLRRSESMKLYALCTRAQPDGPWLKWTDKDSLLFMVEE
B3: HsCNNM4 extracellular domain (residues 44–175) R50A (domain or fragment, human, UniProt Q6P4Q7 44-175, looked up)
chain: GTIVGMALASCNKSCGTNPDGIIFVSEGSTVNLRLYGYSLGNISSNLISFTEVDDAETLHKSTSCLELTKDLVVQQLVNVSRGNTSGVLVVLTKFLRRSESMKLYALCTRAQPDGPWLKWTDKDSLLFMVEE
B4: HsCNNM4 extracellular domain N85D (Jalili syndrome mutation) (domain or fragment, human, UniProt Q6P4Q7 44-175, looked up)
chain: GTIVGMRLASCNKSCGTNPDGIIFVSEGSTVNLRLYGYSLGDISSNLISFTEVDDAETLHKSTSCLELTKDLVVQQLVNVSRGNTSGVLVVLTKFLRRSESMKLYALCTRAQPDGPWLKWTDKDSLLFMVEE
B5: HsCNNM4 extracellular domain (residues 44–175), wild type (domain or fragment, human, UniProt Q6P4Q7 44-175, looked up)
chain: GTIVGMRLASCNKSCGTNPDGIIFVSEGSTVNLRLYGYSLGNISSNLISFTEVDDAETLHKSTSCLELTKDLVVQQLVNVSRGNTSGVLVVLTKFLRRSESMKLYALCTRAQPDGPWLKWTDKDSLLFMVEE
B6: HsCNNM4 extracellular domain M145T (Jalili syndrome mutation) (domain or fragment, human, UniProt Q6P4Q7 44-175, looked up)
chain: GTIVGMRLASCNKSCGTNPDGIIFVSEGSTVNLRLYGYSLGNISSNLISFTEVDDAETLHKSTSCLELTKDLVVQQLVNVSRGNTSGVLVVLTKFLRRSESTKLYALCTRAQPDGPWLKWTDKDSLLFMVEE

Molecular target: EgCNNM4 extracellular domain (residues 25–153), wild type (Echinococcus granulosus)
Test: AUC

Row | Molecule | stoichiometry N
1 | EgCNNM4 extracellular domain (residues 25–153), wild type (domain or fragment) | 2

Molecular target: the molecule itself
Test: AUC

Row | Molecule | stoichiometry N
2 | B1 | 2
3 | B2 | 2
4 | B3 | 2
5 | B4 | 2
6 | B5 | 2
7 | B6 | 2
